From paper PMC7954794, “Protein context shapes the specificity of SH3 domain-mediated interactions in vivo” (Nature Communications, 2021)

How the values were obtained:
ABP1 = experiment: DHFR-PCA on solid medium, bait ABP1 (Fig. 1B); format: cell-based, Saccharomyces cerevisiae; conditions: bait ABP1, label = prey; 2-4 replicates
Excerpt: Supplement 41467_2021_21873_MOESM8_ESM.xlsx, sheet "Fig1B" | column: medsize; medrep; Ratio; Score

[1] = system: 575 putative partners (preys) of 22 WT SH3-containing proteins; experiment: DHFR-PCA on solid medium, WT and SH3-deleted baits (Fig. 1B); format: cell-based, Saccharomyces cerevisiae; set-up: key to Score: 0: SH3-independent; 1: SH3-dependent PPIs; 2: SH3-inhibited PPIs; conditions: for medrep (log2 median colony size normalized to plate background, PCA score): label = prey; for Ratio (SH3-deleted/WT medrep): only significant differences shown, PPIs completely lost have a ratio of 0.1, gained PPIs 2.5
Excerpt: To assess the requirement of SH3 domains for PPIs in vivo, we first measured binary interactions between 22 WT SH3-containing proteins (Supplementary Fig. 1A) as baits and 575 putative partners from their interconnected signaling networks using the dihydrofolate reductase protein–fragment complementation assay (DHFR-PCA) in the budding yeast Saccharomyces cerevisiae. About 33% (202/607) of the PPIs detected were described before, mostly by direct methods (Supplementary Fig. 1B, C)[11]. We repeated the experiments with baits in which the SH3s were individually replaced with a flexible linker by genome editing (SH3 domain deletion/stuffing, Fig. 1A). The stuffer DNA sequence ([…]) codes for a small flexible poly-Gly with Ser peptide ([…]) that is inspired by previous experiments[12],[13]. About a third of the SH3-containing protein interactome is qualitatively or quantitatively SH3-dependent (171 PPIs out of 607, Fig. 1B and Supplementary Fig. 1B, C). We validated the vast majority of the quantitative changes in low-throughput experiments and excluded that this is simply due to changes in protein abundance in most cases (Supplementary Fig. 1D–G). SH3-binding motifs[14] are more frequent in the SH3-dependent PPI partners when compared to sequences from random proteins, SH3-independent PPI partners or PPI partners that are stronger or gained following SH3 deletions (p values = 1.5 × 10^−17, 0.0038 and 2.1 × 10^−08, respectively; Mann–Whitney test, one-tailed, Fig. 1C). The changes we measure are therefore enriched for PPIs that depend on the direct interactions of the domains with the PPI partners.
The complete list of strains, primers, and gRNAs used in this study can be found in Supplementary Tables 1–3. All constructed yeast strains were validated by polymerase chain reaction (PCR) and confirmed by Sanger sequencing of the locus of interest. Bait strains for the DHFR-PCA experiments were constructed as follows. The genes of interest were fused at their genomic 3′ end by replacing the stop codon with a linker ([…]), the DHFR F[1,2] followed by a smaller linker (GGGGS), a 1× FLAG tag ([…]) and the NATMX4 resistance cassette via homologous recombination (all amplified from pAG25-DHFR[1,2]-linker-FLAG). The set of 615 prey strains (DHFR F[3] fusions in the BY4742 background) were retrieved from the Yeast Protein Interactome Collection[43] with the exception of 73 that were reconstructed (Supplementary Tables 1 and 2). Knockout strains were taken from the yeast knockout collection except for ABP1, BEM1, BZZ1, and SLA1, which were reconstructed by replacing the ORFs with the NATMX4 resistance cassette by homologous recombination in the BY4741 background.
Yeast SH3 domain genomic sequences were replaced by CRISPR–Cas9 genome editing. Each SH3 domain (as defined by the SMART database V8.0 except for Ysc84 SH3 (as defined by PROSITE), see Source Data for all SH3 sequences and Supplementary Table 1 for primers used) was specifically targeted by one gRNA[46]. Yeast competent cells were co-transformed with a pCAS plasmid (Addgene plasmid 60847[47]) expressing both the gRNA of interest and Streptococcus pyogenes Cas9[46] and a donor DNA sequence (stuffer) with 60 bp homology arms surrounding the SH3 DNA sequence. The Stuffer DNA was either PCR amplified or digested from a plasmid. The stuffer DNA sequence ([…]) codes for a small flexible linker ([…]) inspired by protein linkers used in structural biology[12],[13]. This type of linker is frequently used for fusing proteins without affecting the structure of the linked proteins.
The overall DHFR-PCA pipeline is based on Tarassov et al.[43] and the procedures have also been published as a visualized protocol. The screens were performed with robotically manipulated pin tools (BM5-SC1, S&P Robotics Inc.). First, the preys were cherry-picked from 96-well plates to omnitrays in a 384 format on YPD + HPH solid media. […]

[2] = bait SLA1-3, DHFR-PCA, Replicates 4 (2 for YCR009C, YDR388W, YIL033C)
[3] = bait SLA1-2, DHFR-PCA, Replicates 4 (2 for YCR009C, YDR388W)

Molecule | medrep (log2 median colony size normalized to plate background, PCA score) (ABP1) | medrep (log2 median colony size normalized to plate background, PCA score) [1, 2] | Score ([1]; bait SLA1-3, label = prey) | medrep (log2 median colony size normalized to plate background, PCA score) [1, 3] | Score ([1]; bait SLA1-2, label = prey) | Ratio (SH3-deleted/WT medrep) ([1]; bait SLA1-2, label = prey)
YNL084C (protein, UniProt P39013 1-349, looked up) Actin cytoskeleton-regulatory …: MPKLEQFEIKKYWQIFSGLKPIENKVNHDQVLPILYNSKLDSSVLNKIWFLADIDDDDNLDFEEFVICMRLIFDMVNKNISSVPDELPDWLIPGSKVNLIKERKKRKQIENADLPPKKEIKVDWYMSPDDLNQYEKIYNSCAKLTDGTITFNELSTKLSTKFFNISKTDLNKVWSLINPQNLPSIDRDPTFYFIHCLRQRNDLGAEIPASLPNSLAEVCNKKQLSYDLRSSQPPTKRKEEANEVDNLRDNGQNSSSDSSGSNVLSNEDSIKQKYASLTDDQVANMREQLEGLLNYKKSEKTQGGSKLSKRINIRSITDDLDNIEQQVEVLENYLNNKRHELQALQAEIN | 4.13 | 4.605 | 0 | – | – | –
YLR206W (protein, UniProt Q05785 1-613, looked up) Epsin-2: MSKQFVRSAKNMMKGYSSTQVLVRDATANDSRTPSIDTLDDLAQRSYDSVDFFEIMDMLDKRLNDKGKYWRHVAKSLTVLDYLVRFGSENCVLWCRENFYVIKTLREFRHENESGFDEGQIIRVKAKELVSLLNDEERLREERSMNTRNRRANRAARPRPRRQRTRSNPHDSSPSYQDDLEKALEESRITAQEDEQRRRELAQYDDEDPDFQAALQLSKEEEELKQLQELQRLQKQQQSLSQFQAPLQQQQPQQQPAYYDIFGNPISQDEYLQYQYQQDQEQAMAQQRWLDQQQEQQQLAEQQYFQQQQQAAAAASALQQQQTAANMQQQQQQPADFQQPLPTGSNNPFSMDNLERQKQEQQHAQLQRQQEEARQQQEQLKLQQLQRQQQEEAQLHQKRQEEAQLQQQQAQLLQQQAQFQQQQPLKQTRTGNQSISDKYSDLNTLLATGTGIDTFGNTGEARIPAQHTKTGTFINSQGTGYKQVTNEPKNNPFLSNQYTGLPSTNIVPTQTGYGFGNQPQSPPTNSPQQNPTGISYSQPQQQQQPQQQPQYMQNFQQQQPQYAQNFQQQPQYTQNYQQQPQYIQPHQQQQQQQQQQQQQQGYTPDQGVSLIDL | 2.696 | 2.135 | 0 | 2.135 | 1 | 0.1
YML035C (protein, UniProt P15274 1-810, looked up) AMP deaminase: MDNQATQRLNDLSLEPAPSHDEQDGSGLVIDIDQRKIGDEQAGVVVDDETPPLEQQDSHESLAADSRNANFSYHENQQLLENGTKQLALDEHDSHSAILEQPSHSTNCSSSNIAAMNKGHDSADHASQNSGGKPRTLSASAQHILPETLKSFAGAPVVNKQVRTSASYKMGMLADDASQQFLDDPSSELIDLYSKVAECRNLRAKYQTISVQNDDQNPKNKPGWVVYPPPPKPSYNSDTKTVVPVTNKPDAEVFDFTKCEIPGEDPDWEFTLNDDDSYVVHRSGKTDELIAQIPTLRDYYLDLEKMISISSDGPAKSFAYRRLQYLEARWNLYYLLNEYQETSVSKRNPHRDFYNVRKVDTHVHHSACMNQKHLLRFIKHKLRHSKDEKVIFRDGKLLTLDEVFRSLHLTGYDLSIDTLDMHAHKDTFHRFDKFNLKYNPIGESRLREIFLKTNNYIKGTYLADITKQVIFDLENSKYQNCEYRISVYGRSLDEWDKLASWVIDNKVISHNVRWLVQIPRLYDIYKKTGIVQSFQDICKNLFQPLFEVTKNPQSHPKLHVFLQRVIGFDSVDDESKVDRRFHRKYPKPSLWEAPQNPPYSYYLYYLYSNVASLNQWRAKRGFNTLVLRPHCGEAGDPEHLVSAYLLAHGISHGILLRKVPFVQYLYYLDQVGIAMSPLSNNALFLTYDKNPFPRYFKRGLNVSLSTDDPLQFSYTREPLIEEYSVAAQIYKLSNVDMCELARNSVLQSGWEAQIKKHWIGKDFDKSGVEGNDVVRTNVPDIRINYRYDTLSTELELVNHFANFKRTIEEK | 3.81 | 2.073 | 0 | 2.073 | 1 | 0.1
YKR001C (protein, UniProt P21576 1-704, looked up) Vacuolar protein …: MDEHLISTINKLQDALAPLGGGSQSPIDLPQITVVGSQSSGKSSVLENIVGRDFLPRGTGIVTRRPLVLQLINRRPKKSEHAKVNQTANELIDLNINDDDKKKDESGKHQNEGQSEDNKEEWGEFLHLPGKKFYNFDEIRKEIVKETDKVTGANSGISSVPINLRIYSPHVLTLTLVDLPGLTKVPVGDQPPDIERQIKDMLLKYISKPNAIILSVNAANTDLANSDGLKLAREVDPEGTRTIGVLTKVDLMDQGTDVIDILAGRVIPLRYGYIPVINRGQKDIEHKKTIREALENERKFFENHPSYSSKAHYCGTPYLAKKLNSILLHHIRQTLPEIKAKIEATLKKYQNELINLGPETMDSASSVVLSMITDFSNEYAGILDGEAKELSSQELSGGARISYVFHETFKNGVDSLDPFDQIKDSDIRTIMYNSSGSAPSLFVGTEAFEVLVKQQIRRFEEPSLRLVTLVFDELVRMLKQIISQPKYSRYPALREAISNQFIQFLKDATIPTNEFVVDIIKAEQTYINTAHPDLLKGSQAMVMVEEKLHPRQVAVDPKTGKPLPTQPSSSKAPVMEEKSGFFGGFFSTKNKKKLAALESPPPVLKATGQMTERETMETEVIKLLISSYFSIVKRTIADIIPKALMLKLIVKSKTDIQKVLLEKLYGKQDIEELTKENDITIQRRKECKKMVEILRNASQIVSSV | 2.787 | 1.835 | 0 | 1.835 | 1 | 0.1
YJL201W (protein, UniProt P32525 1-599, looked up) Protein ECM25: MIDINVNNIFFRSYSVDPNSGHAIYVFDSTYLPASDEIGDKQVYDLLINALMDRLVMKLPQAPYSLVIFSSGFSQRKISWVYGIKMFAKLPKETKFYLQKIFIVHESFFVRSVYQVISNAMNFNFLDSKDSQHDFPSLVHVLDLTSLSELIDITRLRISLNVYLYDYQIREHINVPEEYYNRLTPLAIRQYRQLVFDKIFKKLQNDALLCELIFQKPGNYKKVNIFLDIIKRNNYIDLSQWDIYSLASVWLNYFIKNKAKPLIPIELIPLPIVDDLKFTSETFRKIIKFNQYQDLFMVIIPFFNRIIAHGESTKHDSRTLSKALTPALCKEKLSMMTNDRLAIGSRYIKNLLDFFPEIAKEISSPPSSVSSSSTIPVLPKPRKSSPTRYSELGCLTLPRSRSPSPQRSVTSPTYTPVALQNTPVLKPKSSSRNVSSPSFNAKPPLPIKAVTRPQLSLTSNSNTDLALASSSTDTLSSPTKTPSADSLPLSNSSTDLTISDNIKEMVKDEPAKDKNSVETDIFVQQFESLTLVQNAKIKKFDKELQEKKKKNETTSKTADKFSQKGYSDIKASNKVSRLAALYEERLQGLQVMNEMKQRW | 3.816 | 1.384 | 0 | 1.384 | 1 | 0.1
